Conditions: Escherichia coli (strain K12); pH 7.8; 25 °C; Urea; CD; potassium phosphate 10 mM; transition: 3; whole UniProt chain shown

B1: Tryptophan synthase alpha chain wild type, P0A877 (protein)
chain: MERYESLFAQLKERKEGAFVPFVTLGDPGIEQSLKIIDTLIEAGADALELGIPFSDPLADGPTIQNATLRAFAAGVTPAQCFEMLALIRQKHPTIPIGLLMYANLVFNKGIDEFYAQCEKVGVDSVLVADVPVEESAPFRQAALRHNVAPIFICPPNADDDLLRQIASYGRGYTYLLSRAGVTGAENRAALPLNHLVAKLKEYNAAPPLQGFGISAPDQVKAAIDAGAAGAISGSAIVKIIEQHINEPEKMLAALKVFVQPMKAATRS
With B1 the denaturant m value was 2.29 kcal/mol/M, the “denaturant midpoint (higher = more stable)” value was 2.68 M and the unfolding free energy was 6.13 kcal/mol.
